Tests used:
[1] = target: Rco_(LS20)-His(6) (Bacillus subtilis (plasmid pLS20cat)); assay: AUC; sedimentation velocity; 10 uM purified Rco_(LS20); 20 mM Tris-HCl, 250 mM NaCl, 10 mM MgCl2, 1 mM EDTA, 100 mM glycerol, pH 7.4; 43-48 krpm; 280 nm; c(s) analysis with SEDFIT
[2] = target: Rco_(LS20)-His(6) (Bacillus subtilis (plasmid pLS20cat)); assay: AUC; sedimentation equilibrium; 10 to 30 uM Rco_(LS20); same buffer as sedimentation velocity; 7,000 to 10,000 rpm; 280 nm; single species model (HeteroAnalysis)

- stoichiometry N [1]: 4
- stoichiometry N [2]: 4
Substance: Rco_(LS20)-His(6) (natural protein)

Source: paper PMC4207663
